The Human Domainome abundance scans (Beltran et al. 2025)
± gives the uncertainty stated by the source.

B1: Membrane-associated guanylate kinase, WW and PDZ domain-containing protein 2, residues 296 to 340; numbered along this chain, Q86UL8 (parent)
chain: EDNEEPDPLPDNWEMAYTEKGEVYFIDHNTKTTSWLDPRLAKKAK

Variants of: B1
Test: abundance fitness (aPCA) (normalised: wild type 0, dead -1); higher = more abundant; growth selection in yeast, the domain comes from the species named
Settings: Homo sapiens

In order of falling abundance fitness:
1. V23Q  0.14 ± 0.077
2. T30S  0.122 ± 0.075
3. K31H  0.103 ± 0.11
4. I26M  0.023 ± 0.16
5. N29A  0.022 ± 0.069
6. T33C  0.021 ± 0.063
7. K20Q  0.018 ± 0.055
8. K31Q  0.013 ± 0.056
9. I26V  0.01 ± 0.069
10. T32C  0.007 ± 0.11
11. K31R  0.005 ± 0.039
12. K20S  0.002 ± 0.075
13. K20M  -0.004 ± 0.059
14. K31M  -0.008 ± 0.058
15. N29S  -0.011 ± 0.06
16. N29G  -0.019 ± 0.049
17. N29T  -0.02 ± 0.058
18. K31C  -0.024 ± 0.055
19. K20R  -0.032 ± 0.042
20. V23E  -0.038 ± 0.046
21. V23P  -0.038 ± 0.099
22. G21Q  -0.047 ± 0.055
23. N29V  -0.051 ± 0.069
24. N29L  -0.059 ± 0.05
25. V23L  -0.062 ± 0.072
26. K20T  -0.063 ± 0.06
27. T32M  -0.071 ± 0.069
28. K31G  -0.074 ± 0.038
29. K20V  -0.075 ± 0.044
30. K31E  -0.08 ± 0.043
31. T32S  -0.08 ± 0.064
32. G21H  -0.081 ± 0.14
33. N29E  -0.081 ± 0.091
34. N29R  -0.082 ± 0.05
35. E22Q  -0.084 ± 0.065
36. V23G  -0.088 ± 0.066
37. I26L  -0.089 ± 0.068
38. E22D  -0.091 ± 0.05
39. F25W  -0.103 ± 0.09
40. T30A  -0.107 ± 0.042
41. N29D  -0.109 ± 0.089
42. T32V  -0.111 ± 0.045
43. K31S  -0.114 ± 0.054
44. N29Y  -0.122 ± 0.13
45. N29Q  -0.13 ± 0.12
46. G21E  -0.14 ± 0.054
47. D27N  -0.151 ± 0.082
48. N29W  -0.151 ± 0.056
49. G21M  -0.152 ± 0.079
50. T30Q  -0.155 ± 0.079
51. K31L  -0.155 ± 0.048
52. T30E  -0.156 ± 0.067
53. G21K  -0.163 ± 0.084
54. G21D  -0.169 ± 0.076
55. G21R  -0.174 ± 0.049
56. T30R  -0.183 ± 0.038
57. T30C  -0.185 ± 0.061
58. T32Q  -0.199 ± 0.067
59. K31W  -0.2 ± 0.058
60. G21S  -0.208 ± 0.069
61. D27Y  -0.217 ± 0.38
62. T30L  -0.221 ± 0.058
63. E22S  -0.227 ± 0.046
64. E22A  -0.228 ± 0.052
65. E22K  -0.234 ± 0.065
66. K31Y  -0.235 ± 0.11
67. H28R  -0.243 ± 0.045
68. T30G  -0.256 ± 0.037
69. I26C  -0.258 ± 0.093
70. I26Q  -0.259 ± 0.11
71. G21C  -0.26 ± 0.07
72. K20W  -0.267 ± 0.06
73. H28F  -0.267 ± 0.18
74. H28Q  -0.267 ± 0.06
75. H28K  -0.269 ± 0.1
76. T32R  -0.269 ± 0.05
77. E22T  -0.295 ± 0.063
78. V23W  -0.295 ± 0.05
79. T32K  -0.303 ± 0.12
80. E22M  -0.314 ± 0.061
81. E22N  -0.314 ± 0.08
82. E22L  -0.321 ± 0.063
83. T30D  -0.324 ± 0.088
84. E22V  -0.325 ± 0.048
85. T32W  -0.325 ± 0.073
86. G21L  -0.329 ± 0.084
87. G21F  -0.33 ± 0.086
88. H28W  -0.334 ± 0.044
89. G21Y  -0.337 ± 0.13
90. K20P  -0.353 ± 0.068
91. T32N  -0.353 ± 0.088
92. K31T  -0.355 ± 0.071
93. E22G  -0.359 ± 0.042
94. E22C  -0.377 ± 0.095
95. I26R  -0.379 ± 0.056
96. K31D  -0.38 ± 0.091
97. T30V  -0.386 ± 0.049
98. T30M  -0.388 ± 0.34
99. E22Y  -0.404 ± 0.067
100. H28V  -0.407 ± 0.063
101. E22R  -0.409 ± 0.048
102. H28A  -0.417 ± 0.045
103. H28G  -0.431 ± 0.044
104. T32H  -0.434 ± 0.063
105. T33A  -0.438 ± 0.048
106. K31V  -0.473 ± 0.048
107. D27E  -0.487 ± 0.072
108. K31I  -0.498 ± 0.079
109. T33I  -0.507 ± 0.11
110. E22I  -0.517 ± 0.12
111. I26A  -0.521 ± 0.073
112. H28Y  -0.525 ± 0.079
113. D27C  -0.544 ± 0.13
114. Y24C  -0.546 ± 0.28
115. I26F  -0.549 ± 0.17
116. E22W  -0.551 ± 0.051
117. Y24L  -0.557 ± 0.09
118. Y24W  -0.568 ± 0.049
119. T30F  -0.575 ± 0.13
120. I26E  -0.585 ± 0.077
121. G21W  -0.593 ± 0.091
122. Y24V  -0.598 ± 0.074
123. Y24D  -0.618 ± 0.084
124. I26H  -0.618 ± 0.077
125. F25K  -0.637 ± 0.12
126. H28E  -0.642 ± 0.088
127. E22F  -0.645 ± 0.43
128. H28P  -0.652 ± 0.065
129. T33E  -0.655 ± 0.06
130. F25E  -0.661 ± 0.14
131. Y24A  -0.664 ± 0.075
132. D27R  -0.667 ± 0.1
133. N29P  -0.673 ± 0.079
134. K31P  -0.675 ± 0.076
135. I26S  -0.677 ± 0.084
136. I26W  -0.691 ± 0.1
137. Y24S  -0.703 ± 0.083
138. G21P  -0.709 ± 0.16
139. F25R  -0.715 ± 0.063
140. I26T  -0.733 ± 0.35
141. F25G  -0.75 ± 0.054
142. F25N  -0.756 ± 0.1
143. T33G  -0.776 ± 0.043
144. F25S  -0.777 ± 0.066
145. D27A  -0.786 ± 0.12
146. Y24Q  -0.809 ± 0.11
147. Y24G  -0.816 ± 0.048
148. E22P  -0.825 ± 0.13
149. F25T  -0.839 ± 0.077
150. T32F  -0.843 ± 0.37
151. T33D  -0.848 ± 0.067
152. Y24R  -0.86 ± 0.071
153. G21I  -0.865 ± 0.25
154. Y24T  -0.872 ± 0.097
155. F25L  -0.896 ± 0.064
156. D27G  -0.937 ± 0.074
157. G21V  -0.975 ± 0.072
158. D27M  -1.03 ± 0.091
159. F25V  -1.05 ± 0.08
160. Y24P  -1.07 ± 0.21
161. Y24N  -1.08 ± 0.49
162. D27P  -1.09 ± 0.22
163. I26D  -1.15 ± 0.16
164. T30P  -1.17 ± 0.076
165. D27L  -1.3 ± 0.091
166. D27V  -1.39 ± 0.1
167. D27I  -1.58 ± 0.32
